B1: human EphA3 ligand-binding domain (domain or fragment)
chain: EVNLLDSKTIQGELGWISYPSHGWEEISGVDEHYTPIRTYQVCNVMDHSQNNWLRTNWVPRNSAQKIYVELKFTLRDCNSIPLVLGTCKETFNLYYMESDDDHGVKFREHQFTKIDTIAADESFTQMDLGDRILKLNTEIREVGPVNKKGFYLAFQDVGACVALVSVRVYFK
notes: also called EphA3 LBD; EphA3 receptor; not shown: GST, N-terminal, cleaved; 10xHis, N-terminal, cleaved
B2: human ephrin-A5 receptor-binding domain (domain or fragment)
chain: KAVADRYAVYWNSSNPRFQRGDYHIDVCINDYLDVFCPHYEDSVPEDKTERYVLYMVNFDGYSACDHTSKGFKRWECNRPHSPNGPLKFSEKFQLFTPFSLGFEFRPGREYFYISSAIPDNGRRSCLKLKVFVRPTNSCMK
modifications: deglycosylated with PNGase F
notes: also called ephrin-A5 ligand

Experiments:
[1] = biological target: B2; test: ITC; details: both partners purified
[2] = biological target: B1; test: ITC; details: both partners purified

Row | Binder | dH [1] | Kd [2]
1 | B1 | -2.15 kcal/mol | –
2 | B2 | – | 9 nM

From article PMC4439037, “Distinctive Structure of the EphA3/Ephrin-A5 Complex Reveals a Dual Mode of Eph Receptor Interaction for Ephrin-A5” (PLoS ONE, 2015)
